Legend:
FBXW7 = FBXW7 (UniProt Q969H0); test: anti-myc IP, anti-HA blot; conditions: reference: myc-CCDC6 wild type; sites S359,S413,T427
USP7 = USP7 (UniProt Q93009); test: anti-myc IP, western blot; conditions: reference: myc-CCDC6 wild type; sites S359,S413,T427

binding against the reference (FBXW7): weaker
binding against the reference (USP7): stronger
Substance: CCDC6 (from UniProt Q16204) triple mutant S359A/S413A/T427A (TM)
